Data: publication PMC12756002, “Mutations in Hsp40 co-chaperone change the canonical interdomain interactions stimulating LGMDD1 myopathy” (The Journal of Biological Chemistry, 2025)

T1: Sis1-E53A premixed with denatured Rnq1 (yeast, UniProt P25294 1-352; P25367 1-405, E53A)
T1 construct: also called Sis1-FLRnq1 complex (E53A)
T1 sequence (looked up) 1: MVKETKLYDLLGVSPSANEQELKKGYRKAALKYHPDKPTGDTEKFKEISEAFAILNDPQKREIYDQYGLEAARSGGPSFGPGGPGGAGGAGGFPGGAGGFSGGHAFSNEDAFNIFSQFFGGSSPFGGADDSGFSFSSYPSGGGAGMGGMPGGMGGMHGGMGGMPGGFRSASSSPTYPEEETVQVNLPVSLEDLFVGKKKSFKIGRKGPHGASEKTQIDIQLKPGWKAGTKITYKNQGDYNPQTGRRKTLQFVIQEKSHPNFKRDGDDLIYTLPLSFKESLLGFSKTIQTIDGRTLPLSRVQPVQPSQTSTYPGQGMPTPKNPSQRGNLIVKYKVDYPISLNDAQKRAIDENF
T1 sequence (looked up) 2: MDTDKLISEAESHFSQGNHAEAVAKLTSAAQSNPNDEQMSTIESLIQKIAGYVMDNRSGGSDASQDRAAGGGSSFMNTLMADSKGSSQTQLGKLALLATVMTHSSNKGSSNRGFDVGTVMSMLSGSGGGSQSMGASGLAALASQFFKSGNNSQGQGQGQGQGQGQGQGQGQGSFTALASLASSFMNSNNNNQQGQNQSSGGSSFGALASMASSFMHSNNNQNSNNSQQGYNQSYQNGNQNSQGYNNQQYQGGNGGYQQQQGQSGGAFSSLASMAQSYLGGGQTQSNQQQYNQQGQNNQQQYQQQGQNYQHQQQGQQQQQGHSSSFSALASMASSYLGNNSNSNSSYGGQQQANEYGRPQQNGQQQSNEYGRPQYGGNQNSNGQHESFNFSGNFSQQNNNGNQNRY

T2: Sis1-N56L premixed with denatured Rnq1 (yeast, UniProt P25294 1-352; P25367 1-405, N56L)
T2 construct: also called Sis1-FLRnq1 complex (N56L)
T2 sequence (looked up) 1: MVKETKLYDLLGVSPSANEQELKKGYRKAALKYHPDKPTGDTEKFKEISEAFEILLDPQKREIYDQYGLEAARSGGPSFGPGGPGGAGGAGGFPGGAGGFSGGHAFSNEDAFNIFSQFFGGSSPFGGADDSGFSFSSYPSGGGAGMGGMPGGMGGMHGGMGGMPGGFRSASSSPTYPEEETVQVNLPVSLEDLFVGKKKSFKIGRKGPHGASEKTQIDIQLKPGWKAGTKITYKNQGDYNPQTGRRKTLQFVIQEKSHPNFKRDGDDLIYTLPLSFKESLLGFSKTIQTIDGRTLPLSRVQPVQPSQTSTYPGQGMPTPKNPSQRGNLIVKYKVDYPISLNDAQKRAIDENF
T2 sequence (looked up) 2: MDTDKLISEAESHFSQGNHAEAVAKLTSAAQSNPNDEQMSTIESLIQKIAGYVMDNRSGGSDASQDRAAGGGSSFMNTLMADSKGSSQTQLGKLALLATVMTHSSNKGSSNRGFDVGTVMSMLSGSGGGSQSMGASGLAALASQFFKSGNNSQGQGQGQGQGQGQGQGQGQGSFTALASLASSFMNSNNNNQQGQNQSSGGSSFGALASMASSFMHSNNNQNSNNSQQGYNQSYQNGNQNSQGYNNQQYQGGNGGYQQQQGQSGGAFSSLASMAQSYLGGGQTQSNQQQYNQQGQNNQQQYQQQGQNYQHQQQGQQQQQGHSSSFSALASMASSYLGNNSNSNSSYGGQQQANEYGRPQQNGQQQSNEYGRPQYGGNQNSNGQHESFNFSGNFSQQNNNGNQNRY

T3: Sis1-E53K premixed with denatured Rnq1 (yeast, UniProt P25294 1-352; P25367 1-405, E53K)
T3 construct: also called Sis1-FLRnq1 complex (E53K)
T3 sequence (looked up) 1: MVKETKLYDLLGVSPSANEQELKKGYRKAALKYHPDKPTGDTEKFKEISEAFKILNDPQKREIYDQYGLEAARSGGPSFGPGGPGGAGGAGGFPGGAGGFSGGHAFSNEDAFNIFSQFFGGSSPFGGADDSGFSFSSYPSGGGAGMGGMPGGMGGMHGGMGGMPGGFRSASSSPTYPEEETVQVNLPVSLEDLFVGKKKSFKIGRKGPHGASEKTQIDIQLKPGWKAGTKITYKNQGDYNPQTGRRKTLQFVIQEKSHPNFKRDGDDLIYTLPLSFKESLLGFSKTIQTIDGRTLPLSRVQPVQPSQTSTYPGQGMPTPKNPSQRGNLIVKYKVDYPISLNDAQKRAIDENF
T3 sequence (looked up) 2: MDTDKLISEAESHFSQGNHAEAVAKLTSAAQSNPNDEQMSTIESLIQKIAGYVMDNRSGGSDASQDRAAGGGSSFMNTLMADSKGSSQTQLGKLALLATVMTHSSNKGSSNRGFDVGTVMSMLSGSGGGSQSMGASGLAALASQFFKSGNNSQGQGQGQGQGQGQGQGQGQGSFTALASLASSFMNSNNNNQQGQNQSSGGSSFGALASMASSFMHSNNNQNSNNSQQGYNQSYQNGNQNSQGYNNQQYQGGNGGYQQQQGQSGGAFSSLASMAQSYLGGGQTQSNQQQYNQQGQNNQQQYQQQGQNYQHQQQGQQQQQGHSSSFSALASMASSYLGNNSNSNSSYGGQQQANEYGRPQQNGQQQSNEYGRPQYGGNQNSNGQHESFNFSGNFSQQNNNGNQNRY

T4: Sis1-S49V premixed with denatured Rnq1 (yeast, UniProt P25294 1-352; P25367 1-405, S49V)
T4 construct: also called Sis1-FLRnq1 complex (S49V)
T4 sequence (looked up) 1: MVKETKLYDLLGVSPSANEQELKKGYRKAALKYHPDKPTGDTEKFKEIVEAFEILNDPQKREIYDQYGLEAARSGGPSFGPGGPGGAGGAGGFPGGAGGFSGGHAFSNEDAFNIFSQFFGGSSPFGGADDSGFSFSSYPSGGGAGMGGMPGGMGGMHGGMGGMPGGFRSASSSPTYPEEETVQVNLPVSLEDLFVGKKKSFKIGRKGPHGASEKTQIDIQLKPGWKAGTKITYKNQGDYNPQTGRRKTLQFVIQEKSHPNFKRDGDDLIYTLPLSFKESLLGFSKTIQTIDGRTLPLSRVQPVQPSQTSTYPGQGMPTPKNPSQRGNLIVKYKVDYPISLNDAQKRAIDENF
T4 sequence (looked up) 2: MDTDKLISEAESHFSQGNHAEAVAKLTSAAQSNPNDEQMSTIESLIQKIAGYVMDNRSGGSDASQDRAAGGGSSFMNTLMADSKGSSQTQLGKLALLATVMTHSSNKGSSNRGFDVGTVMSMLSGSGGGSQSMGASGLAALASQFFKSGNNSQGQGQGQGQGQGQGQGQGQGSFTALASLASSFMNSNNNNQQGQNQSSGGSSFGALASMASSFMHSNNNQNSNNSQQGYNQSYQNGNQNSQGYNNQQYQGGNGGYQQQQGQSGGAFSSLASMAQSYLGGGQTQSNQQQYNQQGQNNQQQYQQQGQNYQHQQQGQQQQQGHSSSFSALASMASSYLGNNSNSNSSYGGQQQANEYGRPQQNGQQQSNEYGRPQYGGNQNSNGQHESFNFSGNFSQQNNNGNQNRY

T5: Sis1-FLRnq1 complex (Sis1-WT premixed with denatured Rnq1) (yeast, UniProt P25294 1-352; P25367 1-405)
T5 construct: also called Sis1-WT with client protein Rnq1
T5 sequence (looked up) 1: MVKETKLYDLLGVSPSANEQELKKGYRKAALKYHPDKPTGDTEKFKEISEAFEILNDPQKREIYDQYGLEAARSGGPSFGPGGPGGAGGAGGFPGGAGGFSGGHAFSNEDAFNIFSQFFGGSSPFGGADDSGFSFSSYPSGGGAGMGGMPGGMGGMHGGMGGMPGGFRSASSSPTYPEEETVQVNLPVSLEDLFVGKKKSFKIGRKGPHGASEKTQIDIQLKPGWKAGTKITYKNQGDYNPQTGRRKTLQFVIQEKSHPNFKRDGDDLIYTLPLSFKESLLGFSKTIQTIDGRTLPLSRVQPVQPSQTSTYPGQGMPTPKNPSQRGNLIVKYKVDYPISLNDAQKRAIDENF
T5 sequence (looked up) 2: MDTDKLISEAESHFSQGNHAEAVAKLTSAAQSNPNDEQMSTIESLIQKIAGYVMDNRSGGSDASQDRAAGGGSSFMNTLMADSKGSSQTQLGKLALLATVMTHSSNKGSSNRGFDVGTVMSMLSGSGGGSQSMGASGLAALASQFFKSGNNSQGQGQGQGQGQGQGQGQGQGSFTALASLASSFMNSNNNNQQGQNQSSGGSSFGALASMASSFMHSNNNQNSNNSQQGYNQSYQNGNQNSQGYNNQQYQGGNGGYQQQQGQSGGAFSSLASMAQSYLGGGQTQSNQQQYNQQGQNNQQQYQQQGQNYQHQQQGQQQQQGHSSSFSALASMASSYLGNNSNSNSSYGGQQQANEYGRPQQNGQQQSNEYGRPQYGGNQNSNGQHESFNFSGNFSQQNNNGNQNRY

T6: full-length Rnq1 (yeast, UniProt P25367 1-405)
T6 construct: also called FL Rnq1; Rnq1-WT
T6 sequence (looked up): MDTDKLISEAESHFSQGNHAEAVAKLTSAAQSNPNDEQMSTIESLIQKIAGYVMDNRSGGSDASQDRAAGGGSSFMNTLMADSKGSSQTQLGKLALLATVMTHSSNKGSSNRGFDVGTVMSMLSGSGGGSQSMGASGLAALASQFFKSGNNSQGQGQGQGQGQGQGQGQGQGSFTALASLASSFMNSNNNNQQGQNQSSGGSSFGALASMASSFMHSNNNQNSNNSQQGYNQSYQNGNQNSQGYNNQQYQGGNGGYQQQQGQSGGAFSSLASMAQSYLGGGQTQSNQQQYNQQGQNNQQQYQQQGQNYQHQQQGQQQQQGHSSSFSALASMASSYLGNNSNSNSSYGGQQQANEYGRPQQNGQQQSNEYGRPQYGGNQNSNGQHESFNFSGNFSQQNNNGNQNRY

B1: Ssa1-WT (natural protein)
chain: not shown
notes: Ssa1, yeast Hsp70; Cloned into pPROEx-Htb; cleavage of the tag follows from 'the remaining purification steps were analogous to those for Sis1-WT'; also called Hsp70; source: E. coli Rosetta 2(DE3), purified (Talon resin, steps analogous to Sis1)

Key:
Conditions in all cases: both partners purified
[1] = target: T1, Sis1-E53A premixed with denatured Rnq1; test: ELISA; denatured Rnq1 premixed with Sis1-WT or mutants (5 nM), 1 h room temperature, adsorbed onto wells; dilutions of Ssa1-WT (0-20 nM); bound Ssa1 detected with an anti-Ssa1 (Hsp70) antibody
[2] = target: T2, Sis1-N56L premixed with denatured Rnq1; test: as above
[3] = target: T3, Sis1-E53K premixed with denatured Rnq1; test: as above
[4] = target: T4, Sis1-S49V premixed with denatured Rnq1; test: as above
[5] = target: T5, Sis1-FLRnq1 complex (Sis1-WT premixed …); test: as above
[6] = target: T6, full-length Rnq1; test: ELISA; denatured substrate (FL Rnq1 or ΔN Rnq1 400 ng, luciferase 100 ng) immobilised in microtiter wells; dilutions of Sis1-WT or mutants (0-20 or 0-25 nM) in PBS-T with 0.5% BSA, overnight at room temperature; retained Sis1 detected with an anti-Sis1 antibody
[7] = target: B1; test: ELISA; Ssa1 (200 nM) immobilised in microtiter wells; dilutions of Sis1-WT or mutants (0-50 nM); bound Sis1 detected with an anti-Sis1 antibody; no client

Sequence of Ssa1-WT (P10591 whole entry): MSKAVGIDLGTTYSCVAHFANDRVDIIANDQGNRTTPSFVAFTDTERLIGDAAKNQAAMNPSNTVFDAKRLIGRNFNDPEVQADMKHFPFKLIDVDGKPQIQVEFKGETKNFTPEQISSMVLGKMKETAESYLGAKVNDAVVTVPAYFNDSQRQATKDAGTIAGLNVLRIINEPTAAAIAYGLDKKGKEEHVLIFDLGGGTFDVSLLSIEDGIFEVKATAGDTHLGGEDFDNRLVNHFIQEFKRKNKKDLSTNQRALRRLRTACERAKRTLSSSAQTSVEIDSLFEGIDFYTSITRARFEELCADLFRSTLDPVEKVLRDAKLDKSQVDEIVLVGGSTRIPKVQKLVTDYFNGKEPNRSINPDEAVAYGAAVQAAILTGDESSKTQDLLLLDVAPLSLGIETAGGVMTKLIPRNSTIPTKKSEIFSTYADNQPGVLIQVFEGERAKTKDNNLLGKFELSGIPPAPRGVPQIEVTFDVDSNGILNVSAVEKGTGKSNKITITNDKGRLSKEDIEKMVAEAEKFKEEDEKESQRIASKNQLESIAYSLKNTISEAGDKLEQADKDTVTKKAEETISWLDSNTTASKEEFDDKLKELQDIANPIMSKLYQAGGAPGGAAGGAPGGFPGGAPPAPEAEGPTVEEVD

| binding result [1] | binding result [2] | binding result [3] | binding result [4] | binding result [5] | binding result [6] | binding result [7] | Binder |
| --- | --- | --- | --- | --- | --- | --- | --- |
| binds | binds | binds | binds | binds | – | – | B1 |
| – | – | – | – | – | binds | binds | Sis1-WT (natural protein, yeast, UniProt P25294 1-352, looked up, Sis1, essential yeast DNAJ (Hsp40) protein, homolog of human DNAJB6; Cloned into pPROEx-Htb (hexa-His-tag, TEV site); also called Hsp40; wild-type Sis1; source: E. coli Lemo21(DE3), purified (Talon cobalt resin, TEV cleavage, second Talon pass)) MVKETKLYDLLGVSPSANEQELKKGYRKAALKYHPDKPTGDTEKFKEISEAFEILNDPQKREIYDQYGLEAARSGGPSFGPGGPGGAGGAGGFPGGAGGFSGGHAFSNEDAFNIFSQFFGGSSPFGGADDSGFSFSSYPSGGGAGMGGMPGGMGGMHGGMGGMPGGFRSASSSPTYPEEETVQVNLPVSLEDLFVGKKKSFKIGRKGPHGASEKTQIDIQLKPGWKAGTKITYKNQGDYNPQTGRRKTLQFVIQEKSHPNFKRDGDDLIYTLPLSFKESLLGFSKTIQTIDGRTLPLSRVQPVQPSQTSTYPGQGMPTPKNPSQRGNLIVKYKVDYPISLNDAQKRAIDENF |
| – | – | – | – | – | binds | binds | Sis1-E53K (natural protein, yeast, UniProt P25294 1-352, looked up, Sis1, essential yeast DNAJ (Hsp40) protein, with the J-domain mutation E53K; also called homologous to DNAJB6-E54K; LGMDD1 J-domain mutant; source: E. coli Lemo21(DE3), purified (Talon cobalt resin, TEV cleavage, second Talon pass)) MVKETKLYDLLGVSPSANEQELKKGYRKAALKYHPDKPTGDTEKFKEISEAFKILNDPQKREIYDQYGLEAARSGGPSFGPGGPGGAGGAGGFPGGAGGFSGGHAFSNEDAFNIFSQFFGGSSPFGGADDSGFSFSSYPSGGGAGMGGMPGGMGGMHGGMGGMPGGFRSASSSPTYPEEETVQVNLPVSLEDLFVGKKKSFKIGRKGPHGASEKTQIDIQLKPGWKAGTKITYKNQGDYNPQTGRRKTLQFVIQEKSHPNFKRDGDDLIYTLPLSFKESLLGFSKTIQTIDGRTLPLSRVQPVQPSQTSTYPGQGMPTPKNPSQRGNLIVKYKVDYPISLNDAQKRAIDENF |
